For the experiment, the target named is Cnn-C^S186D scaffolds (Cnn-C-PReM^m with S186 phosphomimicked) (Drosophila melanogaster).

The substance “γ-tubulin37C-mCherry (from UniProt P42271 1-457) (natural protein)” yielded a recruitment of γ-tubulin to scaffolds in unfertilized eggs, fold over Cnn-C scaffolds of 3.8 fold.

The values are drawn from article PMC8164090.
